The record followed here is the supplement of paper PMC5998384.

Data set [1] has as its system HeLa Kyoto. Nature of the data set: solubility change mitosis vs G1/S (difference of NP-40 vs SDS log2 ratios) (log2 ratio difference); higher = more soluble in mitosis.
The subject of data set [2] is HeLa Kyoto. Nature of the data set: solubility in G1/S (NP-40 vs SDS abundance) (log2 ratio); higher = more soluble. To be noted: cell cycle stage: G1/S.
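Wherever solubility change mitosis vs G1/S (difference of NP-40 vs SDS log2 ratios) is given: synchronized HeLa Kyoto cells (double thymidine block for G1/S, nocodazole release for mitosis), protein amounts in NP-40 versus SDS lysates quantified by mass spectrometry, three biological replicates.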
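Wherever solubility in G1/S (NP-40 vs SDS abundance) is given: HeLa Kyoto cells arrested at G1/S by double thymidine block, proteins quantified by TMT10plex mass spectrometry in mild NP-40 versus SDS extracts, three biological replicates.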

For the sequence “MASSHSSSPVPQGSSSDVFFKIEVDPSKHIRPVPSLPDVCPKEPTGDSHSLYVAPSLVTDQHRWTVYHSKVNLPAALNDPRLAKRESDFFTKTWGLDFVDTEVIPSFYLPQISKEHFTVYQQEISQREKIHERCKNICPPKDTFERTLLHTHDKSRTDLEQVPKIFMKPDFALDDSLTFNSVLPWSHFNTAGGKGNRDAASSKLLQEKLSHYLDIVEVNIAHQISLRSEAFFHAMTSQHELQDYLRKTSQAVKMLRDKIAQIDKVMCEGSLHILRLALTRNNCVKVYNKLKLMATVHQTQPTVQVLLSTSEFVGALDLIATTQEVLQQELQGIHSFRHLGSQLCELEKLIDKMMIAEFSTYSHSDLNRPLEDDCQVLEEERLISLVFGLLKQRKLNFLEIYGEKMVITAKNIIKQCVINKVSQTEEIDTDVVVKLADQMRMLNFPQWFDLLKDIFSKFTIFLQRVKATLNIIHSVVLSVLDKNQRTRELEEISQQKNAAKDNSLDTEVAYLIHEGMFISDAFGEGELTPIAVDTTSQRNASPNSEPCSSDSVSEPECTTDSSSSKEHTSSSAIPGGVDIMVSEDMKLTDSELGKLANNIQELLYSASDICHDRAVKFLMSRAKDGFLEKLNSMEFITLSRLMETFILDTEQICGRKSTSLLGALQSQAIKFVNRFHEERKTKLSLLLDNERWKQADVPAEFQDLVDSLSDGKIALPEKKSGATEERKPAEVLIVEGQQYAVVGTVLLLIRIILEYCQCVDNIPSVTTDMLTRLSDLLKYFNSRSCQLVLGAGALQVVGLKTITTKNLALSSRCLQLIVHYIPVIRAHFEARLPPKQYSMLRHFDHITKDYHDHIAEISAKLVAIMDSLFDKLLSKYEVKAPVPSACFRNICKQMTKMHEAIFDLLPEEQTQMLFLRINASYKLHLKKQLSHLNVINDGGPQNGLVTADVAFYTGNLQALKGLKDLDLNMAEIWEQKR [VPS54]”, in the data set with HeLa Kyoto [1], the “solubility change mitosis (log2)” value turned out to be 0.126. Further, in the data set on HeLa Kyoto [2], the “solubility in G1/S (log2)” value was -0.136.
Turning to “MASSLLAGERLVRALGPGGELEPERLPRKLRAELEAALGKKHKGGDSSSGPQRLVSFRLIRDLHQHLRERDSKLYLHELLEGSEIYLPEVVKPPRNPELVARLEKIKIQLANEEYKRITRNVTCQDTRHGGTLSDLGKQVRSLKALVITIFNFIVTVVAAFVCTYLGSQYIFTEMASRVLAALIVASVVGLAELYVMVRAMEGELGEL [TMEM199]”, the “solubility change mitosis (log2)” value in the data set on HeLa Kyoto [1] was -0.0986. Besides, the “solubility in G1/S (log2)” value in the data set on HeLa Kyoto [2] is -0.349.
For the sequence “MASTRSIELEHFEERDKRPRPGSRRGAPSSSGGSSSSGPKGNGLIPSPAHSAHCSFYRTRTLQALSSEKKAKKARFYRNGDRYFKGLVFAISSDRFRSFDALLIELTRSLSDNVNLPQGVRTIYTIDGSRKVTSLDELLEGESYVCASNEPFRKVDYTKNINPNWSVNIKGGTSRALAAASSVKSEVKESKDFIKPKLVTVIRSGVKPRKAVRILLNKKTAHSFEQVLTDITEAIKLDSGVVKRLCTLDGKQVTCLQDFFGDDDVFIACGPEKFRYAQDDFVLDHSECRVLKSSYSRSSAVKYSGSKSPGPSRRSKSPASVNGTPSSQLSTPKSTKSSSSSPTSPGSFRGLKQISAHGRSSSNVNGGPELDRCISPEGVNGNRCSESSTLLEKYKIGKVIGDGNFAVVKECIDRSTGKEFALKIIDKAKCCGKEHLIENEVSILRRVKHPNIIMLVEEMETATELFLVMELVKGGDLFDAITSSTKYTERDGSAMVYNLANALRYLHGLSIVHRDIKPENLLVCEYPDGTKSLKLGDFGLATVVEGPLYTVCGTPTYVAPEIIAETGYGLKVDIWAAGVITYILLCGFPPFRSENNLQEDLFDQILAGKLEFPAPYWDNITDSAKELISQMLQVNVEARCTAGQILSHPWVSDDASQENNMQAEVTGKLKQHFNNALPKQNSTTTGVSVIMNTALDKEGQIFCSKHCQDSGRPGMEPISPVPPSVEEIPVPGEAVPAPTPPESPTPHPPPAAPGGERAGTWRRHRD [DCLK2]”, the “solubility change mitosis (log2)” value in the data set on HeLa Kyoto [1] is -0.0347. Also, the “solubility in G1/S (log2)” value in the data set on HeLa Kyoto [2] was -0.0668.
“MATLIYVDKENGEPGTRVVAKDGLKLGSGPSIKALDGRSQVSTPRFGKTFDAPPALPKATRKALGTVNRATEKSVKTKGPLKQKQPSFSAKKMTEKTVKAKSSVPASDDAYPEIEKFFPFNPLDFESFDLPEEHQIAHLPLSGVPLMILDEERELEKLFQLGPPSPVKMPSPPWESNLLQSPSSILSTLDVELPPVCCDIDI [PTTG1]”: the “solubility change mitosis (log2)” value in the data set on HeLa Kyoto [1] stood at 0.554. The “solubility in G1/S (log2)” value in the data set on HeLa Kyoto [2] was 0.176.
In the same order, the values of “MATLWGGLLRLGSLLSLSCLALSVLLLAQLSDAAKNFEDVRCKCICPPYKENSGHIYNKNISQKDCDCLHVVEPMPVRGPDVEAYCLRCECKYEERSSVTIKVTIIIYLSILGLLLLYMVYLTLVEPILKRRLFGHAQLIQSDDDIGDHQPFANAHDVLARSRSRANVLNKVEYAQQRWKLQVQEQRKSVFDRHVVLS [TMEM9B]” are -0.12 and -0.235.
In the same order, the values of “MAVAVGRPSNEELRNLSLSGHVGFDSLPDQLVNKSTSQGFCFNILCVGETGIGKSTLMDTLFNTKFESDPATHNEPGVRLKARSYELQESNVRLKLTIVDTVGFGDQINKDDSYKPIVEYIDAQFEAYLQEELKIKRSLFNYHDTRIHACLYFIAPTGHSLKSLDLVTMKKLDSKVNIIPIIAKADTIAKNELHKFKSKIMSELVSNGVQIYQFPTDEETVAEINATMSVHLPFAVVGSTEEVKIGNKMAKARQYPWGVVQVENENHCDFVKLREMLIRVNMEDLREQTHTRHYELYRRCKLEEMGFKDTDPDSKPFSLQETYEAKRNEFLGELQKKEEEMRQMFVMRVKEKEAELKEAEKELHEKFDLLKRTHQEEKKKVEDKKKELEEEVNNFQKKKAAAQLLQSQAQQSGAQQTKKDKDKKNASFT [SEPT11]” are 0.12 and -0.0512.
With “MAVTKELLQMDLYALLGIEEKAADKEVKKAYRQKALSCHPDKNPDNPRAAELFHQLSQALEVLTDAAARAAYDKVRKAKKQAAERTQKLDEKRKKVKLDLEARERQAQAQESEEEEESRSTRTLEQEIERLREEGSRQLEEQQRLIREQIRQERDQRLRGKAENTEGQGTPKLKLKWKCKKEDESKGGYSKDVLLRLLQKYGEVLNLVLSSKKPGTAVVEFATVKAAELAVQNEVGLVDNPLKISWLEGQPQDAVGRSHSGLSKGSVLSERDYESLVMMRMRQAAERQQLIARMQQEDQEGPPT [DNAJC17]”, in the data set on HeLa Kyoto [1], the “solubility change mitosis (log2)” value came to 0.205. In the data set with HeLa Kyoto [2], the “solubility in G1/S (log2)” value came out at 0.702.
With “MCAQYCISFADVEKAHINIRDSIHLTPVLTSSILNQLTGRNLFFKCELFQKTGSFKIRGALNAVRSLVPDALERKPKAVVTHSSGNHGQALTYAAKLEGIPAYIVVPQTAPDCKKLAIQAYGASIVYCEPSDESRENVAKRVTEETEGIMVHPNQEPAVIAGQGTIALEVLNQVPLVDALVVPVGGGGMLAGIAITVKALKPSVKVYAAEPSNADDCYQSKLKGKLMPNLYPPETIADGVKSSIGLNTWPIIRDLVDDIFTVTEDEIKCATQLVWERMKLLIEPTAGVGVAAVLSQHFQTVSPEVKNICIVLSGGNVDLTSSITWVKQAERPASYQSVSV [SRR]”, the “solubility change mitosis (log2)” value in the data set on HeLa Kyoto [1] came out at 0.0667. In the data set with HeLa Kyoto [2], the “solubility in G1/S (log2)” value was 0.0946.
In the same order, the values of “MCDQQQIQCRLPLQQCCVKGPSFCSSQSPFAQSQVVVQAPCEMQIVDCPASCPVQVCQVSDQAPCQSQTTQVKCQSKTKQVKGQAQCQSKTTQVKGQAASQSQTSSVQSQAPCQSEVSYVQCEASQPVQTCFVECAPVCYTETCYVECPVQNYVPCPAPQPVQMYRGRPAVCQPQGRFSTQCQYQGSYSSCGPQFQSRATCNNYTPQFQLRPSYSSCFPQYRSRTSFSPCVPQCQTQGSYGSFTEQHRSRSTSRCLPPPRRLQLFPRSCSPPRRFEPCSSSYLPLRPSEGFPNYCTPPRRSEPIYNSRCPRRPISSCSQRRGPKCRIEISSPCCPRQVPPQRCPVEIPPIRRRSQSCGPQPSWGASCPELRPHVEPRPLPSFCPPRRLDQCPESPLQRCPPPAPRPRLRPEPCISLEPRPRPLPRQLSEPCLYPEPLPALRPTPRPVPLPRPGQCEIPEPRPCLQPCEHPEPCPRPEPIPLPAPCPSPEPCRETWRSPSPCWGPNPVPYPGDLGCHESSPHRLDTEAPYCGPSSYNQGQESGAGCGPGDVFPERRGQDGHGDQGNAFAGVKGEAKSAYF [KPRP]” are 1.12 and -1.06.
Consider “MDDDKPFQPKNISKMAELFMECEEEELEPWQKKVEETQDEDDDELIFVGEISSSKPAISNILNRGHSSSSSKGIKSEPHSPGIPEIFRTASQRCRDPPSNPVAASPRFHLVSKSSQSSVTVENASKPDFTKNSQVGSDNSSILLFDSTQESLPPSQDIPAIFREGMKNTSYVLKHPSTSKVNSVTPKKPKTSEDVPQINPSTSLPLIGSPPVTSSQVMLSKGTNTSSPYDAGADYLRACPKCNVQFNLLDPLKYHMKHCCPDMITKFLGVIVKSERPCDEDKTDSETGKLIMLVNEFYYGRHEGVTEKEPKTYTTFKCFSCSKVLKNNIRFMNHMKHHLELEKQNNESWENHTTCQHCYRQYPTPFQLQCHIESTHTPHEFSTICKICELSFETEHILLQHMKDTHKPGEMPYVCQVCQFRSSTFSDVEAHFRAAHENTKNLLCPFCLKVSKMATPYMNHYMKHQKKGVHRCPKCRLQFLTSKEKAEHKAQHRTFIKPKELEGLPPGAKVTIRASLGPLQSKLPTAPFGCAPGTSFLQVTPPTSQNTTARNPRKSNASRSKTSKLHATTSTASKVNTSKPRGRIAKSKAKPSYKQKRQRNRKNKMSLALKNIRCRRGIHKCIECHSKIKDFASHFSIYIHCSFCKYNTNCNKAFVNHMMSSHSNHPGKRFCIFKKHSGTLRGITLVCLKCDFLADSSGLDRMAKHLSQRKTHTCQVIIENVSKSTSTSEPTTGCSLK [ZNF280C]”, for which the “solubility change mitosis (log2)” value in the data set with HeLa Kyoto [1] was 0.796. Further, in the data set on HeLa Kyoto [2], the “solubility in G1/S (log2)” value is -1.44.
In the same order, the values of “MDDDLMLALRLQEEWNLQEAERDHAQESLSLVDASWELVDPTPDLQALFVQFNDQFFWGQLEAVEVKWSVRMTLCAGICSYEGKGGMCSIRLSEPLLKLRPRKDLVETLLHEMIHAYLFVTNNDKDREGHGPEFCKHMHRINSLTGANITVYHTFHDEVDEYRRHWWRCNGPCQHRPPYYGYVKRATNREPSAHDYWWAEHQKTCGGTYIKIKEPENYSKKGKGKAKLGKEPVLAAENKDKPNRGEAQLVIPFSGKGYVLGETSNLPSPGKLITSHAINKTQDLLNQNHSANAVRPNSKIKVKFEQNGSSKNSHLVSPAVSNSHQNVLSNYFPRVSFANQKAFRGVNGSPRISVTVGNIPKNSVSSSSQRRVSSSKISLRNSSKVTESASVMPSQDVSGSEDTFPNKRPRLEDKTVFDNFFIKKEQIKSSGNDPKYSTTTAQNSSSSSSQSKMVNCPVCQNEVLESQINEHLDWCLEGDSIKVKSEESL [SPRTN]” are 0.0242 and -0.206.
